The assay concerns the target bovine brain Arp2/3 complex (bovine) (UniProt P61157). In words: ITC; cortactin constructs titrated into ATP-Arp2/3 complex; temperature and concentrations indicated only in Fig. 4d.

One may read the stoichiometry N as the number of molecules, sites or subunits per partner or assembly.

Sequence of Cort_(1-33) (Q60598 1-33): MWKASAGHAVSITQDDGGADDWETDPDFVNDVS
Sequence of Cort_(1-76), cortactin N-terminal acidic domain (NTA, residues 1-76) (Q60598 1-76): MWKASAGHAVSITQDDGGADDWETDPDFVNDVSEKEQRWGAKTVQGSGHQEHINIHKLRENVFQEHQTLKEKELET
Sequence of Cort_(18-76) (Q60598 18-76): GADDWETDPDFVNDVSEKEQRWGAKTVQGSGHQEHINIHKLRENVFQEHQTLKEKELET

The substance “Cort_(18-76) (from UniProt Q60598 18-76) (domain or fragment)” yielded a stoichiometry N of 1.
As for “Cort_(1-33) (from UniProt Q60598 1-33) (domain or fragment)”, the figure is 1.
Take “Cort_(1-76), cortactin N-terminal acidic domain (NTA, residues 1-76) (from UniProt Q60598 1-76) (domain or fragment)”: the stoichiometry N was 1.

For the origin of these results see paper PMC10613254.
